# In patent publication US20250177443A1 (ACADEMISCH ZIEKENHUIS LEIDEN H O D N LUMC, published 2025):
# Assays:
# HLA-A*02:01 = target: T1, HLA-A*02:01 (human); assay: stable pHLA monomer refolding
# T1 construct: also called HLA-A2
# [1] = target: T2, Jchain (joining chain) peptide on HLA-A*03:01 (human); assay: killing
# T2 peptide: ISDPTSPLRTR
# [2] = target: T3, Jchain (joining chain) peptide on HLA-A*11:01 (human); assay: NSG mice with established U266 + HLA-A11 + luciferase; 3-6x10^6 TCR-transduced CD8 T cells i.v.; bioluminescence; full-length, on cells
# T3 peptide: ISDPTSPLRTR
# Text: (§1) Subsequently, mice were infused with 3-6×10\hat{ }6 Jchain HLA-A1, -A24, -A3 or -A11 TCR or irrelevant CMV TCR Td CD8 T cells after which tumor outgrowth was followed measuring bioluminescence at regular intervals (FIG. 7A,B).
# HLA-B*40:01 = HLA-B*40:01 (human); assay: stable pHLA monomer refolding
# HLA-A*24:02 = HLA-A*24:02 (human); assay: stable pHLA monomer refolding
# [3] = target: T4, Jchain (joining chain) peptide on HLA-A*01:01 (human); assay: multimer staining
# T4 peptide: YTAVVPLVY
# [4] = target: T3, Jchain (joining chain) peptide on …; assay: killing
# [5] = target: T2, Jchain (joining chain) peptide on …; assay: NSG mice with established wild-type HLA-A3pos U266 + luciferase; TCR-transduced CD8 T cells i.v.; bioluminescence; complete eradication in hIL-7/hIL-15 NSG mice (FIG. 15); full-length, on cells
# HLA-A*11:01 = HLA-A*11:01 (human); assay: stable pHLA monomer refolding
# [6] = target: T5, Jchain (joining chain) peptide on HLA-A*24:02 (human); assay: NSG mice with established U266 + HLA-A24 + luciferase; 3-6x10^6 TCR-transduced CD8 T cells i.v.; bioluminescence; full-length, on cells
# T5 peptide: CYTAVVPLV
# Text: as §1
# HLA-A*03:01 = target: T6, HLA-A*03:01 (human); assay: stable pHLA monomer refolding
# T6 construct: also called HLA-A3
# HLA-A*01:01 = target: T7, HLA-A*01:01 (human); assay: stable pHLA monomer refolding
# T7 construct: also called HLA-A1
binder,measurement,setting,value
YTAVVPLV [Jchain derived peptide YTAVVPLV (SEQ ID NO: 105)],binding result,HLA-A*02:01,binds
"TCR clone 16C7.9 (TCR, V domains shown) Valpha: AQKITQTQPGMFVQEKEAVTLDCTYDTSDPSYGLFWYKQPSSGEMIFLIYQGSYDQQNATEGRYSLNFQKARKSANLVISASQLGDSAMYFCAMREDYTGGFKTIFGAGTRLFVKA Vbeta: GAGVSQTPSNKVTEKGKYVELRCDPISGHTALYWYRQSLGQGPEFLIYFQGTGAADDSGLPNDRFFAVRPEGSVSTLKIQRTERGDSAVYLCASSLISGGNEQFFGPGTRLTVL",binding result,[1],no recognition
same,fold lower tumor load than in CMV TCR control mice,[2],190 fold
GETKMVETAL (also called GET peptide) [Jchain derived peptide GETKMVETAL (SEQ ID NO: 107)],binding result,HLA-B*40:01,binds
VLAVFIKAV (also called VLA2 peptide) [Jchain derived peptide VLAVFIKAV (SEQ ID NO: 104)],binding result,HLA-A*02:01,binds
CYTAVVPLV (also called CYT peptide) [Jchain derived peptide CYTAVVPLV (SEQ ID NO: 100)],binding result,HLA-A*24:02,binds
VLAVFIKAVHV (also called VLA1 peptide) [Jchain derived peptide VLAVFIKAVHV (SEQ ID NO: 103)],binding result,HLA-A*02:01,binds
"TCR clone 4G8.8 (TCR, V domains shown) Valpha: AQTVTQSQPEMSVQEAETVTLSCTYDTSENNYYLFWYKQPPSRQMILVIRQEAYKQQNATENRFSVNFQKAAKSFSLKISDSQLGDTAMYFCAFMKHVEYGNKLVFGAGTILRVKS Vbeta: DAGITQSPRHKVTETGTPVTLRCHQTENHRYMYWYRQDPGHGLRLIHYSYGVKDTDKGEVSDGYSVSRSKTEDFLLTLESATSSQTSVYFCAARDSANEKLFFGSGTQLSVL",binding result,[3],recognises
"TCR clone 5C8.16 (TCR, V domains shown) Valpha: AQSVTQLDSHVSVSEGTPVLLRCNYSSSYSPSLFWYVQHPNKGLQLLLKYTSAATLVKGINGFEAEFKKSETSFHLTKPSAHMSDAAEYFCVVKWADSWGKLQFGAGTQVVVTP Vbeta: AAGVIQSPRHLIKEKRETATLKCYPIPRHDTVYWYQQGPGQDPQFLISFYEKMQSDKGSIPDRFSAQQFSDYHSELNMSSLELGDSALYFCASSLGTGNFYEQYFGPGTRLTVT",binding result,[4],no recognition
same,fold lower tumor load than in CMV TCR control mice,[5],70 fold
"TCR clone 13F6.6 (TCR, V domains shown) Valpha: AQSVSQHNHHVILSEAASLELGCNYSYGGTVNLFWYVQYPGQHLQLLLKYFSGDPLVKGIKGFEAEFIKSKFSFNLRKPSVQWSDTAEYFCAASSGGYQKVTFGIGTKLQVIP Vbeta: DVKVTQSSRYLVKRTGEKVFLECVQDMDHENMFWYRQDPGLGLRLIYFSYDVKMKEKGDIPEGYSVSREKKERFSLILESASTNQTSMYLCASSLRREVGDTQYFGPGTRLTVL",binding result,[3],recognises
RIIVPLNNR (also called RII peptide) [Jchain derived peptide RIIVPLNNR (SEQ ID NO: 106)],binding result,HLA-A*11:01,binds
"TCR clone 10H11.11 (TCR, V domains shown) Valpha: EDQVTQSPEALRLQEGESSSLNCSYTVSGLRGLFWYRQDPGKGPEFLFTLYSAGEEKEKERLKATLTKKESFLHITAPKPEDSATYLCAVLSGGSYIPTFGRGTSLIVHP Vbeta: DTGVSQDPRHKITKRGQNVTFRCDPISEHNRLYWYRQTLGQGPEFLTYFQNEAQLEKSRLLSDRFSAERPKGSFSTLEIQRTEQGDSAMYLCASSPLLRDSEEKLFFGSGTQLSVL",fold lower tumor load than in CMV TCR control mice,[6],209 fold
ISDPTSPLRTR (also called ISD peptide) [Jchain derived peptide ISDPTSPLRTR (SEQ ID NO: 101)],binding result,HLA-A*11:01,binds
same,binding result,HLA-A*03:01,binds
TAVVPLVY (also called TAV peptide) [Jchain derived peptide TAVVPLVY (SEQ ID NO: 102)],binding result,HLA-A*01:01,binds
